# Substitutions are numbered along the chain they refer to.
# B1: B06 (antibody, V domains shown)
# VH: not shown
# VL: DIQMTQSPSSLSASVGDRVTITCRASQGISSYLAWYQQKPGKAPKLLIYAASTLQSGVPDRFSGSGSGTDFTLTISSLQAEDVAVYYCQQYLSVPYTFGQGTKVEIK
# notes: Fab phage clone converted into full-length IgG; also called 67A3-40
# B2: B07 (antibody, V domains shown)
# VH: EVQLLESGGGLVQPGGSLRLSCAASGFTFSSYWMSWVRQAPGKGLEWVANIKQDGSEKYYVDSVKGRFTISRDNAKNSLYLQMNSLRAEDTAVYYCARVCGYDDAFDIWGQGTMVTVSA
# VL: NIQMTHSPSTLSASVGDRVTISCRASQSISTWLAWYQQKPGKAPKLLIYKASSLESGVPSRFSGSGSGTDFTLTISSLQPEDFATYYCQQSYSIPLTFGGGTKVEIK
# notes: Fab phage clone converted into full-length IgG; also called 67C1-5
# B3: B10 (antibody, V domains shown)
# VH: QVQLVQSGGGLVQPGGSLRLSCAASGFTFSSYWMSWVRQAPGKGLEWVANIKQDGSEKYYVDSVKGRFTISRDNAKNSLFLQMNSLGAEDTAMYYCARATVKYGGDDAFDIWGQGTMVTVSA
# VL: B2 VL with M4L, H6Q, S22T, T31D, K45N, Y92F, I94T, L96F, G100P, E105D
# notes: Fab phage clone converted into full-length IgG; also called 67C3-14
# B4: B12 (antibody, V domains shown)
# VH: B2 VH with E1Q, C100A, G101L, Y102W
# VL: B2 VL with M4L, H6Q, T20I, S22T, Q27R, S28G, T31S, K45N, Y49S, Y92S
# notes: Fab phage clone converted into full-length IgG; also called 67C1-9
# B5: B04 (antibody, V domains shown)
# VH: B2 VH with E1Q, E6D, V99T, C100M, G101L, Y102W
# VL: B2 VL with N1D, M4L, H6Q, S22T, Q27E, T31S, A43V, I94T, L96P, G100Q
# notes: Fab phage clone converted into full-length IgG; also called 67A3-15
# B6: B16 (antibody, V domains shown)
# VH: B2 VH with E1Q, E6D, C100A, G101L, Y102W
# VL: B2 VL with N1D, H6Q, T10S, S22T, T31S, D70E, E81D, Q90H, Y92N, I94L
# notes: Fab phage clone converted into full-length IgG; also called 67C3-10
# B7: B06-01 (antibody, V domains shown)
# VH: not shown
# VL: B1 VL
# B8: B06-02 (antibody, V domains shown)
# VH: not shown
# VL: B1 VL
# B9: B06-03 (antibody, V domains shown)
# VH: not shown
# VL: B1 VL
# B10: B12-03 (antibody, V domains shown)
# VH: B2 VH with E1Q, D54E, S63A, C100A, G101L, Y102W, A119S
# VL: B2 VL with N1D, H6Q, T20I, S22T, Q27R, S28G, T31S, K45N, Y49S, Y92S
# B11: B12-02 (antibody, V domains shown)
# VH: B2 VH with E1Q, D54E, C100A, G101L, Y102W, A119S
# VL: B2 VL with N1D, H6Q, T20I, S22T, Q27R, S28G, T31S, K45N, Y49S, Y92S
# B12: B16-01 (antibody, V domains shown)
# VH: B2 VH with E1Q, E6D, C100A, G101L, Y102W, A119S
# VL: B2 VL with N1D, H6Q, T10S, S22T, T31S, D70E, E81D, Q90H, Y92N, I94L
# B13: B08 (antibody, V domains shown)
# VH: EVQLLESGGGLVQPGGSLRLSCVGSGFTFSDHYMDWVRQAPGKGLEWVSSISSSSSYIYYADSVKGRFTISRDNAKNSLYLQMNSLRAEDTAVYYCARGRVGATNRFGMDVWGQGTMVTVSA
# VL: DIQMIQSPSSVSASVGDRVTITCRASESISRWLAWYQQKPGKAPKLLIYAASNLESGVPSRFSGSGSGTEFTLTISSLQPEDFATYYCQQAESFPSFGQGTRLEIK
# notes: Fab phage clone converted into full-length IgG; also called 67C2-1
# B14: B01 (antibody, V domains shown)
# VH: EVQLLESGGGLVQPGGSLRLSCAASGFTLSSHWLAWVRQAPGKGLEWVASIHQDASLEFYVDSVEGRFTISRDNSKRSLFLQMNNLRVEDTAVYYCARGDNQFDNWGQGTLVTVSA
# VL: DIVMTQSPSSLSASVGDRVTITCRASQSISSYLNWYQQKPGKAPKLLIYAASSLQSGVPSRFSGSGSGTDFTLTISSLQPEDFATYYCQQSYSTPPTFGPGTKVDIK
# notes: Fab phage clone converted into full-length IgG; also called 67A3-5
# B15: B05 (antibody, V domains shown)
# VH: EVQLVETGRGLVQPGRSLRLSCAASGFTFSSYWMSWVRQAPGKGLEWVANIKQDGSEKYYVDSVKGRFTISRDNAKNSLYLQMNSLRAEDTAVYYCARGGYYGDDDAFDIWGQGTMVTVSA
# VL: B2 VL with H6Q, S22T, T31S, D70E, S91T, I94L, G100Q, K103R, E105G
# notes: Fab phage clone converted into full-length IgG; also called 67A3-21
# B16: B13 (antibody, V domains shown)
# VH: B3 VH with Q1E, V5L, Q6E, F80Y, G87R, M93V, Y95F, A99S, G105A, T116A
# VL: B2 VL with H6Q, S22T, T31S, E55Q, I94T, L96F, G100P, E105D
# notes: Fab phage clone converted into full-length IgG; also called 67C1-10
# B17: B03 (antibody, V domains shown)
# VH: B2 VH with T28S, Q53E, C100V, G101R, Y102F, D103N
# VL: DIQLTQSPSTLSASVGDRVTITCRASQSIDTWLAWYQQKPGKAPKLLIHNASTLKSGVSSRFSGSGSGTDFTLTISSLQPEDFATYYCQQSYSTPLTFGGGTKVEIK
# notes: Fab phage clone converted into full-length IgG; also called 67A3-14
# B18: B14 (antibody, V domains shown)
# VH: B2 VH with L11E, G16R, T28S, Q53E, C100V, G101R, Y102F, D103N
# VL: NIQLTQSPSSVSASVGDRVTITCRASQGISSWLAWYQQKPGKAPKLLIYAASSLQSGVPSRFSGSGSGTDFTLTISSLQPEDFATYYCQQANSFPFTFGPGTKVDIK
# notes: Fab phage clone converted into full-length IgG; also called 67C2-19
# B19: B09 (antibody, V domains shown)
# VH: B2 VH with V99E, C100D, G101F, Y102W, D103S, D104G, A105Y, F106Q, I108V
# VL: not shown
# notes: Fab phage clone converted into full-length IgG; also called 67C2-9
# B20: B11 (antibody, V domains shown)
# VH: EVQLLESGAEVKKPGSSVKVSCKASGGTFSSYAISWVRQAPGQGLEWMGGIIPIFGTANYAQKFQGRVTITADESTSTAYMELSSLRSEDTAVYYCARRTDSYGYSDAFDIWGQGTMVTVSA
# VL: not shown
# notes: Fab phage clone converted into full-length IgG; also called 67C3-17
# B21: B02 (antibody, V domains shown)
# VH: QVQLLESGGGLVKPGGSLRLSCAASGFTFSTYIINWVRQAPGKGLEWVSSVAASGDYAYYANSVKGRFTISRDNSKNTLYLQMNSLRAEDTAVYYCARDRSSGYYLSPNDAFDIWGQGTMVTVSA
# VL: NIQLTQSPSSLSASLGDRVTITCRASQTISRYLNWYQQKPGKAPELLIYATSSLQSGVPSRFSGSGSGTDFTLTISSLQPEDFATYYCQQSYSTPTTFGGGTKVEIK
# notes: Fab phage clone converted into full-length IgG; also called 67A2-20
# B22: B17 (antibody, V domains shown)
# VH: EVQLLESGGGLVQPGGSLRLSCAASGFTFSSNAMSWVRQAPGKGLEWVSAVGGGGVNTYYADSVKGRFTISRDNSKNTLYLQMNSLRAEDTAVYYCAKGEKGYSNSCIDYWGQGTLVTVSA
# VL: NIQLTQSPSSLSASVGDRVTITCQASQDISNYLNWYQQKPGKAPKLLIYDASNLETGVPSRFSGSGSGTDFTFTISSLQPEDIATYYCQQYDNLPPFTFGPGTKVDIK
# notes: Fab phage clone converted into full-length IgG; also called 67C2-23
# Target: T1, human PD-L1 on Raji cells (human, UniProt Q9NZQ7 19-290)
# Assay: cell-based or functional assay
# T1 sequence (Q9NZQ7 19-290): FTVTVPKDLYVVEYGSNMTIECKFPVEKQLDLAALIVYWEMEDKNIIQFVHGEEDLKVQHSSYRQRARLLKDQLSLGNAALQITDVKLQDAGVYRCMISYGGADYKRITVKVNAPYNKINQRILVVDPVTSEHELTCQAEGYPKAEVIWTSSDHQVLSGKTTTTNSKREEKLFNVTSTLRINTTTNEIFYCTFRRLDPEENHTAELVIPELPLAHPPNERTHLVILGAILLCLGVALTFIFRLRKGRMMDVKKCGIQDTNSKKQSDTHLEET
row,Binder,EC50 (NF-AT-luciferase RLU) [nM]
1,B1,0.516
2,B2,1.02
3,B3,2.22
4,B4,0.439
5,B5,2.34
6,B6,1.05

# Target: T1, human PD-L1 on Raji cells
# Assay: cell-based or functional assay
# Remark: another data set of the same source
row,Binder,EC50 (NF-AT-luciferase RLU) [nM]
1,B7,0.383
2,B8,0.97
3,B9,0.907
4,B10,0.517
5,B11,0.497
6,B12,0.611
7,B4,0.545

# Target: T2, recombinant human PD-L1 (Sino Biological, Cat#: 10084-H08H) (human, UniProt Q9NZQ7 19-238)
# T2 construct: Bought protein; also called human PD-L1 protein
# Assay: ELISA, plate coated with human PD-L1 at 1 ug/ml, detection with goat anti-human IgG-HRP, OD450
# Procedure: To evaluate antigen binding activity, the antibodies were subjected to ELISA test. Briefly, microtiter plates were coated with human PD-L1 protein at 1 μg/ml in PBS, 100 μl/well at 4° C. overnight, then blocked with 100 μl/well of 1% BSA. 4-fold dilutions of humanized antibodies starting from 10 μg/ml were added to each well and incubated for 1-2 hours at RT. The plates were washed with PBS/Tween and then incubate with goat-anti-human IgG antibody conjugated with Horse Radish Peroxidase (HRP) for 1 hour at RT. After washing, the plates were developed with TMB substrate and analyzed by spectrophotometer at OD 450 nm.
# T2 sequence (Q9NZQ7 19-238 limits assumed): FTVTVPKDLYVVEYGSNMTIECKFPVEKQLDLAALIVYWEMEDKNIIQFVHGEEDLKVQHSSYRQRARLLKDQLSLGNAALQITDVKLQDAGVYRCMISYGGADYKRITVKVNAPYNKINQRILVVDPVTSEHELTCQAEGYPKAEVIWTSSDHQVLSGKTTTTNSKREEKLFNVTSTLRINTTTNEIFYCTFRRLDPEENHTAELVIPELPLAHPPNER
row,Binder,EC50 [nM]
1,B13,1.63
2,B14,18
3,B1,0.236
4,B2,0.124
5,B3,0.31
6,B15,0.625
7,B16,0.13
8,B4,0.142
9,B17,1.28
10,B18,0.222
11,B19,14.3
12,B5,0.19
13,B6,0.147
14,B20,0.294
15,B21,15.5
16,B22,36.1

# Reference: US20210309747A1 (I MAB BIOPHARMA US, published 2021)
